Data: US20190077860A1 (EISAI R AND D MANAGEMENT, published 2019)
Where a chain is given by its changes, count along the chain named.

T1: human EphA1 extracellular region-SEAP-His protein (human, UniProt P21709 26-547)
T1 construct: extracellular domain; also called hEphA1-SEAP-His
T1 sequence (looked up): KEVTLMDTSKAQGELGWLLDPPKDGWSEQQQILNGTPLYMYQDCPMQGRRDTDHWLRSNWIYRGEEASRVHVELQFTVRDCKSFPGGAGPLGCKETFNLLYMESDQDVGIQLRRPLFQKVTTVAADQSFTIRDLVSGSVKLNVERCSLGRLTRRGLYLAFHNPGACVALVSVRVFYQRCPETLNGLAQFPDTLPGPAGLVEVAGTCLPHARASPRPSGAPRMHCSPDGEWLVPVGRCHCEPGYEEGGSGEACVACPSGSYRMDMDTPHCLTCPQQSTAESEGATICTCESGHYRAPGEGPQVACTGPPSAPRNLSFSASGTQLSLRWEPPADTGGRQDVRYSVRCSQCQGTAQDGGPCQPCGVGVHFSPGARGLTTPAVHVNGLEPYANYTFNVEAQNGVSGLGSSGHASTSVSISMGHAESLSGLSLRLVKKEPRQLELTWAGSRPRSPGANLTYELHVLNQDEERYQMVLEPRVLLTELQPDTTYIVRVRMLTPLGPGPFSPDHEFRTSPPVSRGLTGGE

T2: human EphA6 extracellular region-SEAP-His protein (human, UniProt Q9UF33 23-550)
T2 construct: extracellular domain; also called hEphA6-SEAP-His
T2 sequence (looked up): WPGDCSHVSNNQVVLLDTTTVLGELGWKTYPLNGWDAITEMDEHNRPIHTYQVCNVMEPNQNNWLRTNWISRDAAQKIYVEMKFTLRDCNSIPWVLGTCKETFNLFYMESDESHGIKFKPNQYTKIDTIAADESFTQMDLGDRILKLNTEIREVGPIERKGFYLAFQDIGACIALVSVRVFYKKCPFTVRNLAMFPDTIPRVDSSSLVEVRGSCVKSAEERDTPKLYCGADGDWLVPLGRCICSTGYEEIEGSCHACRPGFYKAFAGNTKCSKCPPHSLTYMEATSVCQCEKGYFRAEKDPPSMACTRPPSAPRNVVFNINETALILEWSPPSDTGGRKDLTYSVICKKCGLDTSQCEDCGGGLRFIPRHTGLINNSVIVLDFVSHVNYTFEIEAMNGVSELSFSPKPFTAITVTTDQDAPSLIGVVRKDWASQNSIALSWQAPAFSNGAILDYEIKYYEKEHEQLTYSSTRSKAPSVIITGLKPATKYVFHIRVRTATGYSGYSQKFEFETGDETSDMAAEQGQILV

T3: human EphB2 extracellular region-SEAP-His protein (human, UniProt P29323 19-543)
T3 construct: extracellular domain; also called hEphB2-SEAP-His
T3 sequence (looked up): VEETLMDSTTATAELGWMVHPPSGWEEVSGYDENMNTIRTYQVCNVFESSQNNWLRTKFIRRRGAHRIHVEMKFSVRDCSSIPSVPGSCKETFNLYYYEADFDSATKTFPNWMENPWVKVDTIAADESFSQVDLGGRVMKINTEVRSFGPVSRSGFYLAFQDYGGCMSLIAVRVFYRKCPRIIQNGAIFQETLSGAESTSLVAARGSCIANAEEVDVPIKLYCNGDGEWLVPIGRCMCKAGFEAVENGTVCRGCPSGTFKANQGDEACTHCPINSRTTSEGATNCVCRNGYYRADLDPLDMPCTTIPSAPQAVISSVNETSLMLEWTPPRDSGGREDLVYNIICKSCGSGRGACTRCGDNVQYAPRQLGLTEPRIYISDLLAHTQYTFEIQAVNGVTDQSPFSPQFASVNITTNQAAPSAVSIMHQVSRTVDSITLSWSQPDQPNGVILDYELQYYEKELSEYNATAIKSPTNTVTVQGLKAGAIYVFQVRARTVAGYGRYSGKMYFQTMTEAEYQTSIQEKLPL

T4: human EphB3 extracellular region-SEAP-His protein (human, UniProt P54753 34-559)
T4 construct: extracellular domain; also called hEphB3-SEAP-His
T4 sequence (looked up): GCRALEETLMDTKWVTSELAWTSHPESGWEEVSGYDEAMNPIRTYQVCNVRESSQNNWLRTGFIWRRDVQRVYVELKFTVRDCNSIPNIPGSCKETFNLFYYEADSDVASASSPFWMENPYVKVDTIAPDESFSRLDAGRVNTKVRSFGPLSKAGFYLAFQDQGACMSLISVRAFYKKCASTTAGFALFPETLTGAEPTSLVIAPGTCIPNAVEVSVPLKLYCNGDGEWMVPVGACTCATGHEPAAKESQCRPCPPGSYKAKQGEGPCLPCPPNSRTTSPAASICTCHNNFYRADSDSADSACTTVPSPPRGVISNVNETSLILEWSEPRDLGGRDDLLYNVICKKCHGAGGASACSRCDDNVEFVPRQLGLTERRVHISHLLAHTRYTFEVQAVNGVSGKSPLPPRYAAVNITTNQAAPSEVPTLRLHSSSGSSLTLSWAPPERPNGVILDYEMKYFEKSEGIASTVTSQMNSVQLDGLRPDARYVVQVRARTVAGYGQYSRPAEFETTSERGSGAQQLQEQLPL

B1: humanized antibody No. 133 (antibody, human IgG2)
heavy: QVQLVQSGSELKKPGASVKVSCKASGYTFTDYSMHWVRQAPGQGLEWMGWINTETGEPTYAQGFTGRFVFSLDTSVSTAYLQISSLKAEDTAVYYCARIPLYYYGSRYWYFDVWGQGTTVTVSSASTKGPSVFPLAPSSRSTSESTAALGCLVKDYFPEPVTVSWNSGALTSGVHTFPAVLQSSGLYSLSSVVTVPSSNFGTQTYTCNVDHKPSNTKVDKTVERKSCVECPPCPAPPAAAPSVFLFPPKPKDTLMISRTPEVTCVVVDVSHEDPEVQFNWYVDGVEVHNAKTKPREEQFNSTFRVVSVLTVVHQDWLNGKEYKCKVSNKGLPAPIEKTISKTKGQPREPQVYTLPPSREEMTKNQVSLTCLVKGFYPSDIAVEWESNGQPENNYKTTPPMLDSDGSFFLYSKLTVDKSRWQQGNVFSCSVMHEALHNHYTQKSLSLSPG
light: EIVMTQSPATLSVSPGERATLSCRASENIYRNLAWYQQKPGQSPRLLIYAATNLADGIPARFSGSGSGTEYTLTISSLQSEDFAVYYCQHFWGTPWTFGQGTKVEIKRTVAAPSVFIFPPSDEQLKSGTASVVCLLNNFYPREAKVQWKVDNALQSGNSQESVTEQDSKDSTYSLSSTLTLSKADYEKHKVYACEVTHQGLSSPVTKSFNRGEC
notes: human Ig kappa; also called L2-4/HA1
B2: humanized antibody No. 94 (antibody, human IgG1, kappa)
heavy: QVQLVQSGSELKKPGASVKVSCKASGYTFTDYSMHWVRQAPGQGLKWMGWINTETGEPTYAQGFTGRFVFSLDTSVSTAYLQISSLKAEDTAVYYCARIPLYYYGSRYWYFDVWGQGTTVTVSSASTKGPSVFPLAPSSKSTSGGTAALGCLVKDYFPEPVTVSWNSGALTSGVHTFPAVLQSSGLYSLSSVVTVPSSSLGTQTYICNVNHKPSNTKVDKRVEPKSCDKTHTCPPCPAPPAAAPSVFLFPPKPKDTLMISRTPEVTCVVVDVSHEDPEVQFNWYVDGVEVHNAKTKPREEQFNSTFRVVSVLTVVHQDWLNGKEYKCKVSNKGLPAPIEKTISKTKGQPREPQVYTLPPSREEMTKNQVSLTCLVKGFYPSDIAVEWESNGQPENNYKTTPPMLDSDGSFFLYSKLTVDKSRWQQGNVFSCSVMHEALHNHYTQKSLSLSPG
light: B1 light
notes: human Ig kappa; also called L2-4/HA2
B3: humanized antibody No. 137 (antibody, human IgG2)
heavy: B1 heavy with V2I, E46K, Q62D, G63D, T65K
light: B1 light
notes: human Ig kappa; also called L2-4/HK4
B4: humanized antibody No. 136 (antibody, human IgG2)
heavy: B1 heavy with E46K, Q62D, G63D, T65K
light: B1 light
notes: human Ig kappa; also called L2-4/HK2
B5: humanized antibody No. 135 (antibody, human IgG2)
heavy: B1 heavy with Q62D, G63D, T65K
light: B1 light
notes: human Ig kappa; also called L2-4/HK1

Target: SEAP-His (UniProt P05187 23-511)
Sequence (P05187 23-511): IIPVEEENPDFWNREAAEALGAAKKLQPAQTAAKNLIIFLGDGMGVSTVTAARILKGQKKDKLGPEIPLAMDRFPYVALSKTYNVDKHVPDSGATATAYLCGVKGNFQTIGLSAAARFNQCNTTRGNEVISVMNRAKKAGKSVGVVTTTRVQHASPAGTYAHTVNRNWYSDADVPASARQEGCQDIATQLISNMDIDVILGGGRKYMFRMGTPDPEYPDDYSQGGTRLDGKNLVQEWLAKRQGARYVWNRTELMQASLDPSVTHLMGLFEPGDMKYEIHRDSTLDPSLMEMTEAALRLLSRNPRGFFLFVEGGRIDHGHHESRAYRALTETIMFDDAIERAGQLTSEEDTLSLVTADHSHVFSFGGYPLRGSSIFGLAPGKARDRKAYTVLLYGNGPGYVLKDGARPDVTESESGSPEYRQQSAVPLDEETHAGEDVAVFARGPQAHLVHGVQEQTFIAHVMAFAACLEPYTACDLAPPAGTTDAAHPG
Assay: ELISA

A450 as % of hEphA4-SEAP-His [%]	Binder
4.7	B1
6.7	B2
5.9	B3
5.2	B4
5.3	B5

Target: T1, human EphA1 extracellular …
Assay: ELISA

A450 as % of hEphA4-SEAP-His [%]	Binder
4.9	B1
6.5	B2
6.1	B3
5.3	B4
5.2	B5

Target: T2, human EphA6 extracellular …
Assay: ELISA

A450 as % of hEphA4-SEAP-His [%]	Binder
8.8	B1
8.6	B2
7.1	B3
7.2	B4
7	B5

Target: T3, human EphB2 extracellular …
Assay: ELISA

A450 as % of hEphA4-SEAP-His [%]	Binder
4.6	B1
7	B2
5.6	B3
5.3	B4
5	B5

Target: T4, human EphB3 extracellular …
Assay: ELISA

A450 as % of hEphA4-SEAP-His [%]	Binder
4.7	B1
6.7	B2
5.7	B3
5.5	B4
5	B5

Target: T5, human EphA4 extracellular region-SEAP-His protein (human, UniProt P54764 20-547)
T5 construct: also called hEphA4-SEAP-His
T5 sequence (P54764 20-547): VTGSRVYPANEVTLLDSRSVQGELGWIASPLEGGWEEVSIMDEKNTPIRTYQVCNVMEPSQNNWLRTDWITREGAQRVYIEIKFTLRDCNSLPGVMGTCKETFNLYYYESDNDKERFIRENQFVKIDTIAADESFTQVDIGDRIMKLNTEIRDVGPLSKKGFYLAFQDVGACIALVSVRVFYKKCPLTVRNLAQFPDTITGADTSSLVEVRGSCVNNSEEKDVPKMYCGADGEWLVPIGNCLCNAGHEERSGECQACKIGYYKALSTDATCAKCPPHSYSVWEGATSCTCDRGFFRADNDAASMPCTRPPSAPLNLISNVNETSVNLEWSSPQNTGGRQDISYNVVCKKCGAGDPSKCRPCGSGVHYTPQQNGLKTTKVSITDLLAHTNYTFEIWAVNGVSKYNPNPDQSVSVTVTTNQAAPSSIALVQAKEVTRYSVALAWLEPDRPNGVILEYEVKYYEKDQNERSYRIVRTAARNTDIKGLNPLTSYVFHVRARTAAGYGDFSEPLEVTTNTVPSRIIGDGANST
Assay: ELISA

A450 as % of hEphA4-SEAP-His [%]	Binder
100	B1
100	B2
100	B3
100	B4
100	B5
